Assay results as given in publication PMC10183039.

Target: Grp78 (rat (endogenous in hippocampus)) (UniProt P06761)
Assay: co-IP; primary antibody on Protein A/G magnetic beads in PBS with 0.3% Triton X-100; hippocampal tissue of 3-month-old male rats (WT; APP KO or SNCA KO for comparison) homogenized in RIPA lysis buffer; lysate with beads overnight at 4 °C; four washes with PBST; western blotting

Chain of IP3R1, P29994 1-2750 (receptor) (P29994 whole entry): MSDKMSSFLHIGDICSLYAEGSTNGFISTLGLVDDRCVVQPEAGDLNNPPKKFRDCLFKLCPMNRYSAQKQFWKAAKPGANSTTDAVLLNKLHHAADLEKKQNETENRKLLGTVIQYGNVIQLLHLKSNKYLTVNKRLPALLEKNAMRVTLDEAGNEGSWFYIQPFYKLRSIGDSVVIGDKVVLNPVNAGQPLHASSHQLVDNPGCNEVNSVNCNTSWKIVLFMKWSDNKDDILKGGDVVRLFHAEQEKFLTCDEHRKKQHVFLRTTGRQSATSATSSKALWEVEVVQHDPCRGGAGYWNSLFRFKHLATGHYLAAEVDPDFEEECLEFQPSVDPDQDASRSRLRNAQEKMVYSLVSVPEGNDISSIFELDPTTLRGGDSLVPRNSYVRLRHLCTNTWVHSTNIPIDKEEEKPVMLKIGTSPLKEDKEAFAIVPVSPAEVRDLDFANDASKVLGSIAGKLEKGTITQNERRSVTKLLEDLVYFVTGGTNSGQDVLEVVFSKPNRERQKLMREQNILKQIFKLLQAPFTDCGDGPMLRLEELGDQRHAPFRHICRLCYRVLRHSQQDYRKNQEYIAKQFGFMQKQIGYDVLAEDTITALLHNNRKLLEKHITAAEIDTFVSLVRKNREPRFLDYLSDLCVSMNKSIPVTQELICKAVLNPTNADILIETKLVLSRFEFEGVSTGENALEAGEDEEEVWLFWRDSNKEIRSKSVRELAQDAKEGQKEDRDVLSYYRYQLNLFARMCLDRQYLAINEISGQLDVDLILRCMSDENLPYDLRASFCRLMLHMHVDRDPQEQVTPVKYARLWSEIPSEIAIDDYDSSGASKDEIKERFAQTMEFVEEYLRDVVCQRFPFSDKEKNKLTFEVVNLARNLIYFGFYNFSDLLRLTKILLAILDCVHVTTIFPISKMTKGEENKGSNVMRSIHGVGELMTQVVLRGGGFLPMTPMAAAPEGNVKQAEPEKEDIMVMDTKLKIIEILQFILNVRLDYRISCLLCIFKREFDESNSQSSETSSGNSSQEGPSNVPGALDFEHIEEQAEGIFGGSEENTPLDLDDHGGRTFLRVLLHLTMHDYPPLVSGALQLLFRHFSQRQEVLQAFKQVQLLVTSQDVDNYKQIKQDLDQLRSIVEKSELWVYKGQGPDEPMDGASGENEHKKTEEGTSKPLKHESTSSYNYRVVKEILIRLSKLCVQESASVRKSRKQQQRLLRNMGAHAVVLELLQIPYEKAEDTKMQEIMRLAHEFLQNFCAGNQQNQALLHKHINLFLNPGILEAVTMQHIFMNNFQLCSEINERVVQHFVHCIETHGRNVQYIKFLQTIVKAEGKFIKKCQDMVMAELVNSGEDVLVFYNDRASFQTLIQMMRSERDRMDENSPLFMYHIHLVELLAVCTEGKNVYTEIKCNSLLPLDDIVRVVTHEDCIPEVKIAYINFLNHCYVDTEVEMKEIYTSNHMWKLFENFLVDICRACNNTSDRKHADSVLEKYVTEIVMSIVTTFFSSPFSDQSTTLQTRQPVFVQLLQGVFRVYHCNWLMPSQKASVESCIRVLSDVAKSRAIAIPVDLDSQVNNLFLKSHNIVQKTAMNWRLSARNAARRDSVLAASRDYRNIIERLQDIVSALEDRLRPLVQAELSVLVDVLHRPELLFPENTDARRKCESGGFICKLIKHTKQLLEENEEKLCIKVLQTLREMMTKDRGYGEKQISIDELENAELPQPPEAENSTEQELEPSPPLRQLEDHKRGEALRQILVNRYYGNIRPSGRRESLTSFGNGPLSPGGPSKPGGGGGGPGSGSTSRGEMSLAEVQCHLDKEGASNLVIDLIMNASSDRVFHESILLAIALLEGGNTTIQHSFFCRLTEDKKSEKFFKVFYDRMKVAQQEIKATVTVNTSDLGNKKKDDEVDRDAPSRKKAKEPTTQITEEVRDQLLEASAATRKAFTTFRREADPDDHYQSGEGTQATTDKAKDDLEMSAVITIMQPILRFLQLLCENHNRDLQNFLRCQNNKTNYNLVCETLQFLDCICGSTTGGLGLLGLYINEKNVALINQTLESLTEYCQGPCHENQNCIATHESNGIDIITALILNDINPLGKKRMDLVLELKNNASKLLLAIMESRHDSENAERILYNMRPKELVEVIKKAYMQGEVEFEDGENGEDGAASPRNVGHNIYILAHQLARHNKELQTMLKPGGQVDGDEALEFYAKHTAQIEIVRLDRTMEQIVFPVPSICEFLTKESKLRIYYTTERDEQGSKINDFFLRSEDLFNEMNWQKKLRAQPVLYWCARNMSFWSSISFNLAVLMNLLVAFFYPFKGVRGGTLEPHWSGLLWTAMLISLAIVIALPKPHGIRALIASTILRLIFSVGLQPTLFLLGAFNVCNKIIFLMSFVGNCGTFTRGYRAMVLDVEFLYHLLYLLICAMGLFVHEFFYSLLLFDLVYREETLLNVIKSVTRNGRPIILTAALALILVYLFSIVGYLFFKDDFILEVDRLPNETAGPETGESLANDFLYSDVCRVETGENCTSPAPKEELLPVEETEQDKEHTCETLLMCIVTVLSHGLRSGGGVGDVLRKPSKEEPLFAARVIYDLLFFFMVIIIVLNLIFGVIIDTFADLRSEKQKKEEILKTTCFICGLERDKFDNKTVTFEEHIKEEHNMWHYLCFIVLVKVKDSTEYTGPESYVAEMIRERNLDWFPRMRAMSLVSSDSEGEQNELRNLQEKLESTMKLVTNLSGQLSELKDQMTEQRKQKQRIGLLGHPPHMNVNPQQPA
Chain of Grp78 (rat (endogenous in hippocampus)) (P06761 19-654): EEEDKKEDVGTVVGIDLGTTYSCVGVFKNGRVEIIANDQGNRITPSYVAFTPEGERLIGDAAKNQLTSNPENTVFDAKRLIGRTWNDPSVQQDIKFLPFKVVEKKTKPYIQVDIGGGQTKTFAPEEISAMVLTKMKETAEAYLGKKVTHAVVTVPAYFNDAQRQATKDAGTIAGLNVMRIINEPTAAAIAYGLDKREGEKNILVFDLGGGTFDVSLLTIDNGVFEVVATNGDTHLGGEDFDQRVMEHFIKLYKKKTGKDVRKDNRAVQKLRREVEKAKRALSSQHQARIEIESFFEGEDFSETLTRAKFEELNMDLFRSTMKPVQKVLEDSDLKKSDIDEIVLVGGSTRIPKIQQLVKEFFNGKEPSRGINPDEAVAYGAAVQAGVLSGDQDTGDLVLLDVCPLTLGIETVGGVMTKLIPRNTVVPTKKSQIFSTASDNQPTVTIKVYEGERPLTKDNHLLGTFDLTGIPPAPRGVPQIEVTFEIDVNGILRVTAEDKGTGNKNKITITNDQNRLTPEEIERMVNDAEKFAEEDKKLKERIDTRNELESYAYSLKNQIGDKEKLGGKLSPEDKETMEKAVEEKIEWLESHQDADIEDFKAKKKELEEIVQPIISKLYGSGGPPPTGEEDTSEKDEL

For IP3R1, P29994 1-2750 (receptor), the fold of IP3R1 co-immunoprecipitated with Grp78, APP KO lysate against WT lysate was 1.49 fold.
